B1: full-length human 14-3-3ε (as used in the SEC titration) (natural protein, UniProt P62258 1-255, looked up)
chain: MDDREDLVYQAKLAEQAERYDEMVESMKKVAGMDVELTVEERNLLSVAYKNVIGARRASWRIISSIEQKEENKGGEDKLKMIREYRQMVETELKLICCDILDVLDKHLIPAANTGESKVFYYKMKGDYHRYLAEFATGNDRKEAAENSLVAYKAASDIAMTELPPTHPIRLGLALNFSVFYYEILNSPDRACRLAKAAFDDAIAELDTLSEESYKDSTLIMQLLRDNLTLWTSDMQGDGEEQNKEALQDVEDENQ
notes: human 14-3-3 protein epsilon, full length; Same construct as m21 (TEV-cleavable His6-tag)
B2: untagged full-length human 14-3-3ζ (natural protein, UniProt P63104 1-245, looked up)
chain: MDKNELVQKAKLAEQAERYDDMAACMKSVTEQGAELSNEERNLLSVAYKNVVGARRSSWRVVSSIEQKTEGAEKKQQMAREYREKIETELRDICNDVLSLLEKFLIPNASQAESKVFYLKMKGDYYRYLAEVAAGDDKKGIVDQSQQAYQEAFEISKKEMQPTHPIRLGLALNFSVFYYEILNSPEKACSLAKTAFDEAIAELDTLSEESYKDSTLIMQLLRDNLTLWTSDTQGDEAEAGEGGEN
notes: human 14-3-3 protein zeta, full length, untagged; also called wild-type dimeric 14-3-3ζ

Target: T1, polyphosphorylated full-length SARS-CoV-2 nucleocapsid protein pN.1-419 (SARS-CoV-2, UniProt P0DTC9 1-419)
T1 construct: also called phosphorylated N; polyphosphorylated N; not shown: His6, N-terminal, kept
Assay: SEC
Conditions: both partners purified

Binder | Kd [µM] | stoichiometry N | binding result
B1 | 10.7 | ~1 14-3-3ε chains per pN.1-419 chain (2:2) | –
B2 | – | – | binds
